In the DeepSol protein solubility set:

Assay: soluble on expression in E. coli; label from the status in PepcDB or PDB records
With “MSLAASRRRNTYSQKVNMSNNVRADSLSLLLFTLRSGKLMAINLLKVSEIIPCPALTHLPESHPHVKGIATLRGSSLAVIDLSRAIGERPLADPDGGCLIVTDVSRSKQGLHVQAVSKIVHCLTTDIRPPPYGSSSKSFITGVTQVDGVLVQVLDIEKVIHGIAPAQIVVQSTELAKEDAEVLSKARILVVDDSQVALQQSIITLRNLGIECHTARSAREAIDVLLDLQGTARQINVVVSDIEMSEMDGYALTRTLRDTPDFSDLYILLHTSLDSAMNSEKSQIAGANAVLTKFSSPELTKCLIEAARTVVAQGEGHHHHHH” the “soluble on expression in E. coli” value was “soluble”. In the case of “MSLAATGNASKPSLNSFYADGLGQLRNGLFSCFQPVFGYFGTKTTVEIEKSEDELWEIPFDAISELEWLGSGSQGAVFRGQLENRTVAVKKVNQLKETEIKHLRHLRHQNIIEFLGVCSKSPCYCIVMEYCSKGQLCTVLKSRNTITRELFAQWVKEIADGMHYLHQNKVIHRDLKSPNILISAEDSIKICDFGTSHMQKKMDSTMMSFCGTVSWMAPEMIKKQPCNEKVDVYSFGVVLWEMLTRETPYANIAQMAIIFGVGTNILSLPMPEEAPKGLVLLIKQCLSQKGRNRPSFSHIRQHWEIFKPELFEMTEEEWQLAWDSYREFAKCIQYPSTVTRDHGGPKSAFAMEEEIQRKRHEQLNHIKDIRNMYEMKLKRTNKMYDKLQGCFTELKLKESELAEWEKDLTEREGHHHHHH”, the “soluble on expression in E. coli” value is reported as “not soluble”. With “MSLADLEEALLIIDSDEDVSRHMKEHLTSRGFHVVHCASVKCFTDLKAQVTPDIIIGDLTSDDIKSLYSLLKDVHPRPPIVIHSKRADAENILGALRSGASDYIVKPVADVAVLDEAIQRQIDQVRVYRENQQYRYDLELANKELRAGLEELQADQRAGRHVQMKMLPEREVEYGGIQFDHCIKPSLYLSGDFFDYFRLSSDKIAFYFADVSGHGASSAFVTVLLKNLSNRLQRNLRRQSSDDILYPDRFLKRVNAELLDTDLGKHLTMFAGVIDLQTRVLSYSMGAHFPMPVMSVNGVSRYLDGKGPPVGLFDDPVYPLYEEPLAPGFSLVICSDGLLEVINAKSLAEKEQALLETVQEARHTIPELEKAFGLRWITELPDDIAIVSIMETTEGHHHHHH” the “soluble on expression in E. coli” value was “soluble”. In the case of “MSLADTIIKNAKIVDVYNARIIEGTLAIADSRFLGIDAAYTADNVINAHGQYVVPGLIDPHIHIESANVSPAVFGSLVTPHGTTTILADPHEIVNVAGMRGLEYMVASAKNTALDIKYTMPSCVPAANPTLETSGAVITADEIKQSYDQGLTYGLAEFMNYPGVVNADDGVLDELLVSLNARKMIDGHSPALHGQGLNAYAAAGVHNDHECTQVDEMLDRISRGMYVYLRYGTVSKNMPTLLKGVTPQNARFCCLCGDDLQSVTLRETGHLDESIRVAIQNGIDPLTAIQMATINTAQCTGLSDRGGIAPGLKADFLLVDDLEHFNVNQTFIDGQKIAANGAYLLPTDDSVAGFDDLLETVHLDNFSADQLKLNLTSDKAHVIGLQSISRTQNLVLPVAHDAEGDFHYKPSEDIVKVAVVERHHLTGNVGVGLLSGFGLQNGAIATSIGHDSHNLVVVGTNDADMVVAIDALKACQGGGVAVQNGQVIATLPFVIGGLMSTEPIDSLIAHQKAFNTICHEQLNVTAQFDPIMKLGAMPLDVIPNLRITDKGLVDVTKFEIIDINAEGHHHHHH”, the “soluble on expression in E. coli” value is reported as “soluble”. For “MSLADTLMSDTPFWQRKTLDEMTDAEWESLCDGCGQCCLHKLMDEDTDEIYFTNVACRQLNIKTCQCRHYERRFEFEPDCIKLTRENLPDFEWLPMTCAYRLLAEGKPLPTWHPLLTGSKAAMHGERISVRHIAVKESEVRDWQDHILNKPSWAEEGHHHHHH”, the “soluble on expression in E. coli” value was “not soluble”. For “MSLAEFIYTMRKVRKAHGDKVILDDVNLNFLPGAKIGVVGPNGAGKSSVLRIMAGLDTPNNGDAYLAPGASVGILQQEPHLDETKTVRENVEEGVPIKGKLNRYNEVAELMATDYSDELMEEMGRLQEELDAADAWDIDSQLEQAMDALRCPPPDEPVTHLSGGERRRVALCKLLLSKPDLLLLDEPTNHLDAESVLWLEQHLASYKGAILAVTHDRYFLDNVAEWILELDRGRAYPYEGNYSTYLEKKAERLEVQGKKDQKLQKRLKEELAWVRSGAKARQAKNKARLGRYEEMAAEAEKSRKLDFEEIQIPTPPRLGNVVVEVEHLDKGFEGRTLIKDLSFTLPRNGIVGVIGPNGVGKTTLFKTIVGLEQPDSGVVRVGDTVKLSYVDQNRAGIDPKKNVWEVVSDGLDYIEVGQNEIPSRAYVSAFGFKGPDQQKPAGVLSGGERNRLNLALTLKEGGNLILLDEPTNDLDVETLSSLEHALEQFPGCAVVISHDRWFLDRTCTHILAWEGDDDNEAKWFWFEGEGHHHHHH”, the “soluble on expression in E. coli” value was “soluble”.
